Common to all, as to experiment: cryo-EM structure; replisome reconstituted on fork DNA with AMP-PNP, isolated on a glycerol gradient with glutaraldehyde and BS3; 3.2 Å overall; a sample without CLASPIN solved at 3.4 Å
Common to all, as to settings: both partners purified

One assay addresses T1, AND‐1 (human, UniProt O75717 1-1129).
T1 construct: AND-1, human; Only the trimer of SepB domains is ordered in the map; source: Hi5 insect cells (baculovirus), purified (Flag M2, MonoQ, Superdex 200)
T1 sequence: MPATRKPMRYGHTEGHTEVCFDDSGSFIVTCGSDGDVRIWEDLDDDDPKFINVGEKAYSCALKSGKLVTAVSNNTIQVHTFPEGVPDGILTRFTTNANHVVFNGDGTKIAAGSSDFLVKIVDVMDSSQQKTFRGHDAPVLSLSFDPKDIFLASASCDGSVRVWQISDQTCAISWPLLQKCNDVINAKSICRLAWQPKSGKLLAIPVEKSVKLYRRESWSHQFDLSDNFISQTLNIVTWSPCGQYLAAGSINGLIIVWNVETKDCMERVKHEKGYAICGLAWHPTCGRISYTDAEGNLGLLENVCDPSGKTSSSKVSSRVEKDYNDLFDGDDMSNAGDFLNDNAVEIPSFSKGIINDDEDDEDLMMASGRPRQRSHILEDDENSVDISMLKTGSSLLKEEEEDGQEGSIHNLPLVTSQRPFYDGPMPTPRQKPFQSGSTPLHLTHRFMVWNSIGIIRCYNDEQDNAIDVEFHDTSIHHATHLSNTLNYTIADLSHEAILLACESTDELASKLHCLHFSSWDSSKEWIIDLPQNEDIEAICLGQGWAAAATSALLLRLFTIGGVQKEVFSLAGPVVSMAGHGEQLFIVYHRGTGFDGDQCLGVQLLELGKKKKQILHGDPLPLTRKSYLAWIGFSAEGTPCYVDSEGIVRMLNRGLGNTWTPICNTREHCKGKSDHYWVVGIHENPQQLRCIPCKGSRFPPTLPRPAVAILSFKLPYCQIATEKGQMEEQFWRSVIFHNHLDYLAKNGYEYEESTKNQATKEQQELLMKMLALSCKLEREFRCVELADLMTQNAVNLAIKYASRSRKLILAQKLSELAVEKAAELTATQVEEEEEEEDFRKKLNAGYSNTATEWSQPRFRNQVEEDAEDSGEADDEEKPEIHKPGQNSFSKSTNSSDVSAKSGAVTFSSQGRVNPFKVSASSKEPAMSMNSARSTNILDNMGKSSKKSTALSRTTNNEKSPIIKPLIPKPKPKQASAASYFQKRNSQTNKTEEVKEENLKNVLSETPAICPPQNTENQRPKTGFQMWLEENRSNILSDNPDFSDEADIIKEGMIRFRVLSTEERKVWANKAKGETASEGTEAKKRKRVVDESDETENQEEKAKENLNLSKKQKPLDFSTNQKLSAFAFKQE

A further assay addresses T2, POLE1 (human, UniProt Q07864 1-2286).
T2 construct: POLE1, catalytic subunit of Pol ε, human; Stood in the structure as a subunit of m2; residues 1,371-2,280 modelled; also called POLE1 catalytic subunit; POLE1^nonCat (the modelled C-terminal non-catalytic domain); source: Hi5 insect cells, purified as a subunit of Pol ε

The target in another assay is T3, CLASPIN (human, UniProt Q9HAW4 1-1339).
T3 construct: CLASPIN, human; Only residues 284-319, 525-540 and 592-618 are modelled in the structure; source: Hi5 insect cells (baculovirus), purified (Flag M2, Superose 6)
T3 sequence (Q9HAW4 whole entry, the tested form may be a part): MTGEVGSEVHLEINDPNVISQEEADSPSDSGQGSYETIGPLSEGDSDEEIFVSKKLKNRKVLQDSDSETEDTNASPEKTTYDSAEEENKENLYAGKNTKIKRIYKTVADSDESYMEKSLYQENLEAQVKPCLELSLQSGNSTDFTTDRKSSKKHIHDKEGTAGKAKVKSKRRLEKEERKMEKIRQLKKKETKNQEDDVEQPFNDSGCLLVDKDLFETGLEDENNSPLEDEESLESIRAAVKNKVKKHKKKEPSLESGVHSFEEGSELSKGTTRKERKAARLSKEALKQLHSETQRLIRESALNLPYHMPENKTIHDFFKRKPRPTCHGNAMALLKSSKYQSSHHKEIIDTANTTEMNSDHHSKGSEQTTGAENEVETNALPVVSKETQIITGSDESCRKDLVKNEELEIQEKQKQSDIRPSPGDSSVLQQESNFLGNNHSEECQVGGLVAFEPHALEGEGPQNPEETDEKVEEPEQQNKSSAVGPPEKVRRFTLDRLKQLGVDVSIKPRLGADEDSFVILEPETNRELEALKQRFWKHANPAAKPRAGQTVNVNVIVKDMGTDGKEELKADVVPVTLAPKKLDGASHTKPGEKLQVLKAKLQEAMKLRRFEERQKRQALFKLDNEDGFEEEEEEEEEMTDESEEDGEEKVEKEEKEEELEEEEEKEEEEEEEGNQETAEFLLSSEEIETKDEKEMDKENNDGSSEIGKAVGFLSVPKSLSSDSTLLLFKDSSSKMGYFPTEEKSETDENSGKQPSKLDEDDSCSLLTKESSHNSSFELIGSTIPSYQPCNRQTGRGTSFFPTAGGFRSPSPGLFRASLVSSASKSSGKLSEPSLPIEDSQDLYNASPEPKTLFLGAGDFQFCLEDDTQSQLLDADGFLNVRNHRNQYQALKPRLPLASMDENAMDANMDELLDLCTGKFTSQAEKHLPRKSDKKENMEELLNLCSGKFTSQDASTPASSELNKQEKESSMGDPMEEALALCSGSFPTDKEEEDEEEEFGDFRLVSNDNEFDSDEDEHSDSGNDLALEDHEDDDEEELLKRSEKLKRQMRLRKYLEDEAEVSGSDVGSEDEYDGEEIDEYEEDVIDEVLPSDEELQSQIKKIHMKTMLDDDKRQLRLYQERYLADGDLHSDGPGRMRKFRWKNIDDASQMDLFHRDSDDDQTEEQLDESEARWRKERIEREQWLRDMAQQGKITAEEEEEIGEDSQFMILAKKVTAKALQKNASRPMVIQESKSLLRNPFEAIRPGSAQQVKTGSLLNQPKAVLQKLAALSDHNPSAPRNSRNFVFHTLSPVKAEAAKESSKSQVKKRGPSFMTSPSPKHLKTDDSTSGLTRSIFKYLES

T2 sequence (Q07864 whole entry, the tested form may be a part): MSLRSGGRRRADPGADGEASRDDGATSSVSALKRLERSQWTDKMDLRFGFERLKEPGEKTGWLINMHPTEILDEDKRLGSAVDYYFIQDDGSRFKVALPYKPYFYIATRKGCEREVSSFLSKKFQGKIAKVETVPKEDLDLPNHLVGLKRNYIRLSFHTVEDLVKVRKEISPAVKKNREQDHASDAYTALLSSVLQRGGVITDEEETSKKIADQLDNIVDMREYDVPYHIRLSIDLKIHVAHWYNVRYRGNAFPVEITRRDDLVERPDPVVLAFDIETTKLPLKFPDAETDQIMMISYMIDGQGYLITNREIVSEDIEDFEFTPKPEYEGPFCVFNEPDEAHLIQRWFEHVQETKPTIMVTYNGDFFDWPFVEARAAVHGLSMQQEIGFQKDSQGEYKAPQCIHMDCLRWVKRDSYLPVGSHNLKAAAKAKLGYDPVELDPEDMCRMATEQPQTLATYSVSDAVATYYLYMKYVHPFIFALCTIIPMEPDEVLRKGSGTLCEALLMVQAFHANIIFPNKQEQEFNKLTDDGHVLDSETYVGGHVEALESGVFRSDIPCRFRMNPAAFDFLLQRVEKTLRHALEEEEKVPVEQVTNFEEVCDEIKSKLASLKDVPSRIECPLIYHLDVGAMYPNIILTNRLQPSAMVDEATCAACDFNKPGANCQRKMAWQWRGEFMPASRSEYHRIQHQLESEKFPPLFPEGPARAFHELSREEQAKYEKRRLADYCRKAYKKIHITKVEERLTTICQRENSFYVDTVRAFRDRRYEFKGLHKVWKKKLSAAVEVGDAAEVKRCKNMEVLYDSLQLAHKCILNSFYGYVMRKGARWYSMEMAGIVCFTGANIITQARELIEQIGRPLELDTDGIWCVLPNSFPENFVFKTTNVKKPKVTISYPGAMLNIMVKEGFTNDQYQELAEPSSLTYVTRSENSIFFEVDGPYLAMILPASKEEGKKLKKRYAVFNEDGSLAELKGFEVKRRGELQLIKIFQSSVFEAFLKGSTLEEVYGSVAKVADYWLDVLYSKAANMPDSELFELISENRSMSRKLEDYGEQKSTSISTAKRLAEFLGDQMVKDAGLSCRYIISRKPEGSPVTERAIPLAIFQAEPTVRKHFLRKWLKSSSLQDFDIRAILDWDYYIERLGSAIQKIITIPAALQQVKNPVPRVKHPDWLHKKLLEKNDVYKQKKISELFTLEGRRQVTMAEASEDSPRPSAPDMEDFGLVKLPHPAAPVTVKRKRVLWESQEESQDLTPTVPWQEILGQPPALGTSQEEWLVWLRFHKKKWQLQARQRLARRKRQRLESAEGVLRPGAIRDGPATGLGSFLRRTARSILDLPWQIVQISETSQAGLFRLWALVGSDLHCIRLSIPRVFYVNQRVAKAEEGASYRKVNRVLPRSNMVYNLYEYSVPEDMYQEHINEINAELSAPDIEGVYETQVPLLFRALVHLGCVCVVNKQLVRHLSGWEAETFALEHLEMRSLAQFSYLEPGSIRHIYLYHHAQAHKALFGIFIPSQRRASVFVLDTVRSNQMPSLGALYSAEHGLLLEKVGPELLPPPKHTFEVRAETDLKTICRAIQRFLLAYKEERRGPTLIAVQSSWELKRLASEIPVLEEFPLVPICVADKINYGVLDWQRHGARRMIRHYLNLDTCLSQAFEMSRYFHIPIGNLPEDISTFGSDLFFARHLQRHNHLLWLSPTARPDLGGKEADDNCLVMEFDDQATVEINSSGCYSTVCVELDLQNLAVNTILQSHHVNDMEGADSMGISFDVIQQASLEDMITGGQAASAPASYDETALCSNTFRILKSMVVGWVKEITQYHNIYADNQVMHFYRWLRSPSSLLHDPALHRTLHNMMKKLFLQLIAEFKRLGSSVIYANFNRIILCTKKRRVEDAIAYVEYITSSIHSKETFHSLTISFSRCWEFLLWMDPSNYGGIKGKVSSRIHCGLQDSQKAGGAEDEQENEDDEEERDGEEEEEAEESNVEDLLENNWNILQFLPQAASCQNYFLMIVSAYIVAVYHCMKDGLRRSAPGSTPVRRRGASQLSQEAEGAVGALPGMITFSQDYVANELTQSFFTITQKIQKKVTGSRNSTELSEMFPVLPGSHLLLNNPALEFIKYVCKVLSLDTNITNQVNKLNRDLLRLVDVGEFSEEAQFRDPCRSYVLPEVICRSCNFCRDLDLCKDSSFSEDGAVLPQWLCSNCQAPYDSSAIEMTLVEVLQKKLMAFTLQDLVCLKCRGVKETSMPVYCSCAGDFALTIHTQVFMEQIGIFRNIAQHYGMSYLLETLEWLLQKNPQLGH

B1: CDC45 (natural protein, human, UniProt O75419 1-566, looked up)
chain: MFVSDFRKEFYEVVQSQRVLLFVASDVDALCACKILQALFQCDHVQYTLVPVSGWQELETAFLEHKEQFHYFILINCGANVDLLDILQPDEDTIFFVCDTHRPVNVVNVYNDTQIKLLIKQDDDLEVPAYEDIFRDEEEDEEHSGNDSDGSEPSEKRTRLEEEIVEQTMRRRQRREWEARRRDILFDYEQYEYHGTSSAMVMFELAWMLSKDLNDMLWWAIVGLTDQWVQDKITQMKYVTDVGVLQRHVSRHNHRNEDEENTLSVDCTRISFEYDLRLVLYQHWSLHDSLCNTSYTAARFKLWSVHGQKRLQEFLADMGLPLKQVKQKFQAMDISLKENLREMIEESANKFGMKDMRVQTFSIHFGFKHKFLASDVVFATMSLMESPEKDGSGTDHFIQALDSLSRSNLDKLYHGLELAKKQLRATQQTIASCLCTNLVISQGPFLYCSLMEGTPDVMLFSRPASLSLLSKHLLKSFVCSTKNRRCKLLPLVMAAPLSMEHGTVTVVGIPPETDSSDRKNFFGRAFEKAAESTSSRMLHNHFDLSVIELKAEDRSKFLDALISLLS
notes: CDC45, human; Stood in the structure as a subunit of m1; source: Hi5 insect cells, purified as a subunit of hsCMG
Consider B1, for which the binding result with AND‐1 and with POLE1 was “binds” each time.

B2: MCM5 (natural protein, human)
chain: MSGFDDPGIFYSDSFGGDAQADEGQARKSQLQRRFKEFLRQYRVGTDRTGFTFKYRDELKRHYNLGEYWIEVEMEDLASFDEDLADYLYKQPAEHLQLLEEAAKEVADEVTRPRPSGEEVLQDIQVMLKSDASPSSIRSLKSDMMSHLVKIPGIIIAASAVRAKATRISIQCRSCRNTLTNIAMRPGLEGYALPRKCNTDQAGRPKCPLDPYFIMPDKCKCVDFQTLKLQELPDAVPHGEMPRHMQLYCDRYLCDKVVPGNRVTIMGIYSIKKFGLTTSRGRDRVGVGIRSSYIRVLGIQVDTDGSGRSFAGAVSPQEEEEFRRLAALPNVYEVISKSIAPSIFGGTDMKKAIACLLFGGSRKRLPDGLTRRGDINLLMLGDPGTAKSQLLKFVEKCSPIGVYTSGKGSSAAGLTASVMRDPSSRNFIMEGGAMVLADGGVVCIDEFDKMREDDRVAIHEAMEQQTISIAKAGITTTLNSRCSVLAAANSVFGRWDETKGEDNIDFMPTILSRFDMIFIVKDEHNEERDVMLAKHVITLHVSALTQTQAVEGEIDLAKLKKFIAYCRVKCGPRLSAEAAEKLKNRYIIMRSGARQHERDSDRRSSIPITVRQLEAIVRIAEALSKMKLQPFATEADVEEALRLFQVSTLDAALSGTLSGVEGFTSQEDQEMLSRIEKQLKRRFAIGSQVSEHSIIKDFTKQKYPEHAIHKVLQLMLRRGEIQHRMQRKVLYRLK
notes: MCM5, human; Stood in the structure as a subunit of m1; source: Hi5 insect cells, purified as a subunit of hsCMG
In the case of B2, the binding result with POLE1 is recorded as “binds”.

B3: TIMELESS (natural protein, human)
chain: MDLHMMNCELLATCSALGYLEGDTYHKEPDCLESVKDLIRYLRHEDETRDVRQQLGAAQILQSDLLPILTQHHQDKPLFDAVIRLMVNLTQPALLCFGNLPKEPSFRHHFLQVLTYLQAYKEAFASEKAFGVLSETLYELLQLGWEERQEEDNLLIERILLLVRNILHVPADLDQEKKIDDDASAHDQLLWAIHLSGLDDLLLFLASSSAEEQWSLHVLEIVSLMFRDQNPEQLAGVGQGRLAQERSADFAELEVLRQREMAEKKTRALQRGNRHSRFGGSYIVQGLKSIGERDLIFHKGLHNLRNYSSDLGKQPKKVPKRRQAARELSIQRRSALNVRLFLRDFCSEFLENCYNRLMGSVKDHLLREKAQQHDETYYMWALAFFMAFNRAASFRPGLVSETLSVRTFHFIEQNLTNYYEMMLTDRKEAASWARRMHLALKAYQELLATVNEMDISPDEAVRESSRIIKNNIFYVMEYRELFLALFRKFDERCQPRSFLRDLVETTHLFLKMLERFCRSRGNLVVQNKQKKRRKKKKKVLDQAIVSGNVPSSPEEVEAVWPALAEQLQCCAQNSELSMDSVVPFDAASEVPVEEQRAEAMVRIQDCLLAGQAPQALTLLRSAREVWPEGDVFGSQDISPEEEIQLLKQILSAPLPRQQGPEERGAEEEEEEEEEEEEELQVVQVSEKEFNFLDYLKRFACSTVVRAYVLLLRSYQQNSAHTNHCIVKMLHRLAHDLKMEALLFQLSVFCLFNRLLSDPAAGAYKELVTFAKYILGKFFALAAVNQKAFVELLFWKNTAVVREMTEGYGSLDDRSSSRRAPTWSPEEEAHLRELYLANKDVEGQDVVEAILAHLNTVPRTRKQIIHHLVQMGLADSVKDFQRKGTHIVLWTGDQELELQRLFEEFRDSDDVLGHIMKNITAKRSRARIVDKLLALGLVAERRELYKKRQKKLASSILPNGAESLKDFCQEDLEEEENLPEEDSEEEEEGGSEAEQVQGSLVLSNENLGQSLHQEGFSIPLLWLQNCLIRAADDREEDGCSQAVPLVPLTEENEEAMENEQFQQLLRKLGVRPPASGQETFWRIPAKLSPTQLRRAAASLSQPEEEQKLQPELQPKVPGEQGSDEEHCKEHRAQALRALLLAHKKKAGLASPEEEDAVGKEPLKAAPKKRQLLDSDEEQEEDEGRNRAPELGAPGIQKKKRYQIEDDEDD
notes: Stood in the structure as a subunit of m3; residues 7-803 modelled (527-684 not visualised)
As to B3, in the assay with CLASPIN, the binding result is given as “binds”.

B4: PSF2 (natural protein, human)
chain: MDAAEVEFLAEKELVTIIPNFSLDKIYLIGGDLGPFNPGLPVEVPLWLAINLKQRQKCRLLPPEWMDVEKLEKMRDHERKEETFTPMPSPYYMELTKLLLNHASDNIPKADEIRTLVKDMWDTRIAKLRVSADSFVRQQEAHAKLDNLTLMEINTSGTFLTQALNHMYKLRTNLQPLESTQSQDF
notes: PSF2 (GINS subunit), human; Stood in the structure as a subunit of m1; also called PSF2 subunit of GINS; source: Hi5 insect cells, purified as a subunit of hsCMG
In the case of B4, in the assay with AND‐1, the binding result is recorded as “binds”.

The values above are taken from PMC8634136 (The EMBO Journal, 2021).
